Measurements taken from the supplement of paper PMC9112550, “Optimization of the antimicrobial peptide Bac7 by deep mutational scanning” (BMC Biology, 2022).

system: Escherichia coli TOP10; assay: shrunken log2 fold change of peptide-encoding DNA abundance (4.5 h post-induction vs induction); higher = less antimicrobial activity (less host growth inhibition); conditions: time post-induction: 4.5 h; library: site-saturation at positions 5, 18, 19, 20
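Further: peptides expressed intracellularly from a pBAD plasmid library in pooled LB shake-flask culture, induced with 0.3% L-arabinose, DNA abundance read by NGS, three biological replicates, DESeq2 with apeglm shrinkage.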

Row | Sequence | shrunken log2 fold change
1 | RRIRMRPPRLPRPRPRPPTEPRP | 0.413
2 | RRIRLRPPRLPRPRPRPPICPRP | -0.0611
3 | RRIRERPPRLPRPRPRPDYWPRP | -0.276
4 | RRIRLRPPRLPRPRPRPVVEPRP | 0.175
5 | RRIRTRPPRLPRPRPRPARYPRP | 0.189
6 | RRIRGRPPRLPRPRPRPIFPPRP | 0.553
7 | RRIRARPPRLPRPRPRPYEFPRP | 0.182
8 | RRIRVRPPRLPRPRPRPMMKPRP | 0.168
9 | RRIRPRPPRLPRPRPRPSYLPRP | -0.562
10 | RRIRTRPPRLPRPRPRPYELPRP | -0.854
11 | RRIRKRPPRLPRPRPRPNMRPRP | 0.334
12 | RRIRPRPPRLPRPRPRPYMQPRP | -0.681
13 | RRIRTRPPRLPRPRPRPWDRPRP | -0.105
14 | RRIRLRPPRLPRPRPRPSHGPRP | -0.0685
15 | RRIRHRPPRLPRPRPRPESRPRP | -0.17
16 | RRIRCRPPRLPRPRPRPSHSPRP | -0.392
17 | RRIRNRPPRLPRPRPRPEPGPRP | 0.321
18 | RRIRRRPPRLPRPRPRPSCWPRP | 0.285
19 | RRIRVRPPRLPRPRPRPYNHPRP | -0.343
20 | RRIRRRPPRLPRPRPRPRLHPRP | 0.435
21 | RRIRMRPPRLPRPRPRPRWRPRP | 0.732
22 | RRIRARPPRLPRPRPRPVYKPRP | -0.35
23 | RRIRHRPPRLPRPRPRPGLCPRP | 0.101

Row | Sequence | shrunken log2 fold change
24 | RRIRVRPPRLPRPRPRPWCIPRP | -0.165
25 | RRIRGRPPRLPRPRPRPQMAPRP | 0.923
26 | RRIRMRPPRLPRPRPRPTMKPRP | 0.482
27 | RRIRERPPRLPRPRPRPMRCPRP | 0.0239
28 | RRIRYRPPRLPRPRPRPPVKPRP | -0.102
29 | RRIRQRPPRLPRPRPRPFDKPRP | -0.0121
30 | RRIRIRPPRLPRPRPRPNHLPRP | -0.844
31 | RRIRRRPPRLPRPRPRPQKPPRP | -0.138
32 | RRIRRRPPRLPRPRPRPRMTPRP | 0.295
33 | RRIRKRPPRLPRPRPRPSYRPRP | 0.0249
34 | RRIRIRPPRLPRPRPRPWIRPRP | -0.156
35 | RRIRERPPRLPRPRPRPCIDPRP | -0.00146
36 | RRIRCRPPRLPRPRPRPLRSPRP | 0.482
37 | RRIRDRPPRLPRPRPRPDYYPRP | 0.00235
38 | RRIRLRPPRLPRPRPRPTSQPRP | -0.145
39 | RRIRKRPPRLPRPRPRPITQPRP | -0.00651
40 | RRIRARPPRLPRPRPRPAVSPRP | 0.431
41 | RRIRQRPPRLPRPRPRPQHNPRP | -0.786
42 | RRIRNRPPRLPRPRPRPNCGPRP | 0.0526
43 | RRIRYRPPRLPRPRPRPRTMPRP | -1.72
44 | RRIRARPPRLPRPRPRPEHEPRP | 0.00993
45 | RRIRQRPPRLPRPRPRPLIHPRP | -0.708
46 | RRIRVRPPRLPRPRPRPDRLPRP | 0.314

Row | Sequence | shrunken log2 fold change
47 | RRIRFRPPRLPRPRPRPLFVPRP | -0.424
48 | RRIRQRPPRLPRPRPRPCYCPRP | -0.338
49 | RRIRPRPPRLPRPRPRPHMLPRP | -0.226
50 | RRIRHRPPRLPRPRPRPDCGPRP | -0.131
51 | RRIRWRPPRLPRPRPRPRGCPRP | 0.961
52 | RRIRCRPPRLPRPRPRPWCLPRP | -0.339
53 | RRIRKRPPRLPRPRPRPMGYPRP | -0.0267
54 | RRIRQRPPRLPRPRPRPSDFPRP | -0.128
55 | RRIRRRPPRLPRPRPRPFKFPRP | -0.0354
56 | RRIRPRPPRLPRPRPRPGFFPRP | 0.216
57 | RRIRMRPPRLPRPRPRPYRWPRP | -0.00788
58 | RRIRYRPPRLPRPRPRPSILPRP | -1.25
59 | RRIRLRPPRLPRPRPRPKILPRP | -0.143
60 | RRIRVRPPRLPRPRPRPYKCPRP | -0.0495
61 | RRIRFRPPRLPRPRPRPYLPPRP | -0.216
62 | RRIRIRPPRLPRPRPRPDSSPRP | -0.318
63 | RRIRGRPPRLPRPRPRPHQIPRP | 0.103
64 | RRIRRRPPRLPRPRPRPWWQPRP | 0.0834
65 | RRIRDRPPRLPRPRPRPFMIPRP | 0.0898
66 | RRIRARPPRLPRPRPRPVMYPRP | 0.0749
67 | RRIRGRPPRLPRPRPRPNKFPRP | -0.106
68 | RRIRTRPPRLPRPRPRPITQPRP | -0.168
69 | RRIRRRPPRLPRPRPRPEWDPRP | 0.426

Row | Sequence | shrunken log2 fold change
70 | RRIRHRPPRLPRPRPRPAAFPRP | 0.068
71 | RRIRTRPPRLPRPRPRPRSAPRP | 0.0929
72 | RRIRIRPPRLPRPRPRPVDYPRP | -0.0672
73 | RRIRPRPPRLPRPRPRPFEPPRP | 0.232
74 | RRIRTRPPRLPRPRPRPYAFPRP | -0.17
75 | RRIRQRPPRLPRPRPRPDGRPRP | 0.0192
76 | RRIRTRPPRLPRPRPRPYACPRP | -0.216
77 | RRIRWRPPRLPRPRPRPCTHPRP | 0.0298
78 | RRIRYRPPRLPRPRPRPHQNPRP | -0.527
79 | RRIRGRPPRLPRPRPRPMKWPRP | 3.42
80 | RRIRMRPPRLPRPRPRPVPVPRP | 0.364
81 | RRIRVRPPRLPRPRPRPVMPPRP | -0.0577
82 | RRIRGRPPRLPRPRPRPYHVPRP | -0.0512
83 | RRIRLRPPRLPRPRPRPVQHPRP | -0.0767
84 | RRIRIRPPRLPRPRPRPRGRPRP | 0.229
85 | RRIRARPPRLPRPRPRPLGRPRP | 0.321
86 | RRIRMRPPRLPRPRPRPWHEPRP | -0.126
87 | RRIRLRPPRLPRPRPRPTKEPRP | -0.0767
88 | RRIRRRPPRLPRPRPRPVGEPRP | 0.333
89 | RRIRIRPPRLPRPRPRPYKAPRP | -0.361
90 | RRIRLRPPRLPRPRPRPTGGPRP | 0.621
91 | RRIRARPPRLPRPRPRPGVPPRP | 0.727
